Reference: publication PMC7529893, “Structural basis for substrate recognition and chemical inhibition of oncogenic MAGE ubiquitin ligases” (Nature Communications, 2020)
Values joined by “and” are separate entries in the source; they are usually repeats but may differ in a detail not shown here. Identical values can stand only once. Square brackets hold non-standard residues; d marks the D form. Ends that are not written are not given here. Peptide text beside a SMILES is read from it. Phe(4-CN) = N#Cc1ccc(C[C@H](N)C(=O)O)cc1; Phe(3-Me) = Cc1cccc(C[C@H](N)C(=O)O)c1

Key:
[1] = biological target: T1, GST-MAGE-A11 MHD (Homo sapiens, UniProt P43364); test: TR-FRET competition assay of PCF11 peptides against GST-MAGE-A11 MHD / FAM-PCF11_4; settings: Fig. 1c, panel of eight PCF11 peptides; read-out: IC50, binding of PCF11 peptide to GST-MAGE-A11 by TR-FRET
T1 construct: GST-MAGE-A11 MHD (human MAGE-A11 MHD amino acid 218-429); made in house; host or cells: E. coli BL21(DE3)
T1 sequence (P43364 218-429): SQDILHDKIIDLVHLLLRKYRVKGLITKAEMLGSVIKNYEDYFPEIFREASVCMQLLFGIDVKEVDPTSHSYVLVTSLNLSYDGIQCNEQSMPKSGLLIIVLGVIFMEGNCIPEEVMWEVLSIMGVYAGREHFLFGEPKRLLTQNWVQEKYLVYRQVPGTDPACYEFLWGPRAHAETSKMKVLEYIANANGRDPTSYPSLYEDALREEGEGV
Description: The TR-FRET assay buffer with a formula of 50 mM Tris pH 7.5, 20 mM MgCl2, 0.1 mg/ml BSA and 1 mM DTT was freshly prepared before each experiment. All TR-FRET assays were performed in black 384-well plates with 20 µl/well assay volume in the TR-FRET assay buffer at room temperature (~25 °C). All peptides or compounds were solubilized in DMSO. To test the competitive activity of peptides or compounds against the interaction between GST-MAGE-A11 MHD and FAM-PCF11_4 peptide, 10 µl/well peptide or compound at specified concentration was dispensed into a black 384-well low volume plate, followed by 5 µl/well FAM-PCF11_4 (800 nM), 5 µl/well Tb-anti-GST (20 nM), and GST-MAGE-A11 MHD (20 nM). The assay components in each well was then mixed by shaking the plate on an IKA MTS 2/4 digital microtiter plate shaker (IKA Works; Wilmington, NC, USA) for 1 min. The plate was further centrifuged in an Eppendorf 5810 centrifuge with an A-4-62 swing-bucket rotor (Eppendorf AG, Hamburg, Germany) at 201 g for 30 s. The plate was then incubated for 90 min with a lid to avoid light exposure to the assay components. After incubation, the fluorescent emission signals at 520 nm and 490 nm channels of individual wells were measured with a PHERAstar FS plate reader (BMG Labtech; Durham, NC, USA) by using a 340 nm excitation filter, 100 µs delay time, and 200 µs integration time. The TR-FRET fluorescence emission ratio (TR-FRET signal) for each well was presented as 10,000 × 520 nm/490 nm, which was used directly for curve fitting, or further converted to %Inhibition based on the respective positive and negative controls. The graphic software GraphPad Prism 4.81 (GraphPad Software; La Jolla, CA, USA) was used to generate curves and derive IC50 values of tested peptides or compounds, if applicable.
TR-FRET inhibitory activity characterization of a panel of PCF11 peptides against the interaction between GST-MAGE-A11 MHD and FAM-PCF11_4 was performed as follows. In a 20-µl/well assay volume, dilutions of PCF11_1 to PCF11_8 peptides (concentrations ranged from 3.1 nM to 100 µM for peptides PCF11_4, PCF11_5, PCF11_6 and PCF11_8 in a 1-to-2 dilution pattern for 16 concentration levels, and ranged from 48.9 nM to 100 µM for peptides of PCF11_1, PCF11_2, PCF11_3, and PCF11_7 in a 1-to-2 dilution pattern for 12 concentration levels), 200 nM FAM-PCF11_4, 5 nM Tb-anti-GST and 5 nM GST-MAGE-A11 were mixed together and incubated for 90 min before the TR-FRET signal for each well was measured. The final DMSO concentration was 1.1% (v/v). […] The signal of each peptide-treated well (Signalpeptide) was normalized to the positive and negative controls to derive %inhibition of the peptide at a specific concentration with Eq. (1). Where applicable, the %Inhibition data were fit into a Sigmoidal dose response equation to derive IC50 values.1 %Inhibition=100%−100%×(Signalpeptide−SignalDMSOwithoutGST-MAGEA11)/SignalDMSO−SignalDMSOwithoutGST-MAGEA11.

[2] = biological target: T2, GST-MAGE-A11 MHD (human MAGE-A11 MHD amino acid 218-429) (human, UniProt P43364 218-429); test: FRET
T2 chain: T1 sequence (P43364 218-429)

[3] = biological target: T2, GST-MAGE-A11 MHD (human MAGE-A11 MHD …); test: FRET
[4] = biological target: T3, GST-MAGE-A11 MHD (human MAGE-A11 MHD amino acid 218-429) (human, UniProt P43364 218-429); test: AlphaScreen or HTRF; TR-FRET competition: unlabelled peptide titrated against 200 nM FAM-PCF11_4, 5 nM Tb-anti-GST and 5 nM GST-MAGE-A11 MHD; 50 mM Tris pH 7.5, 20 mM MgCl2, 0.1 mg/ml BSA, 1 mM DTT; room temperature (~25 °C), 90 min; settings: both partners purified
T3 construct: also called recombinant GST-MAGE-A11; source: E. coli BL21(DE3), purified (GSTrap, Resource Q)
T3 sequence (looked up): T1 sequence (P43364 218-429)

[5] = biological target: T4, MAGE-A11 MHD (218-429), as part of the crystallised fusion (human, UniProt P43364 218-429); test: crystal structure; PCF11 677-701 fused by GGSGRP to the N-terminus of MAGE-A11 MHD 218-429; sitting drop, 20 °C, 0.2 M Na acetate, 0.1 M Bis Tris propane pH 7.5, 20% PEG 3350; four protomers in the P 1 cell; settings: both partners purified
T4 construct: In the crystal it follows PCF11 677-701 and the linker GGSGRP (whole chain: m25); also called MAGE-A11 MHD (S218 to C-terminus); source: E. coli BL21(DE3), purified, on one chain with the PCF11 degron
T4 sequence (looked up): T1 sequence (P43364 218-429)

## CC[C@H](C)[C@H](N)C(=O)N[C@H](C(=O)N[C@@H](CCC(N)=O)C(=O)N[C@@H](CC(=O)O)C(=O)N[C@@H](CC(=O)O)C(=O)N[C@@H](Cc1ccccc1)C(=O)N[C@@H](CC(C)C)C(=O)N[C@H](C(=O)N[C@H](C(=O)N[C@H](C(=O)N[C@@H](Cc1c[nH]cn1)C(=O)N[C@@H](CCC(N)=O)C(=O)N[C@H](C(=O)N[C@@H](CCCNC(=N)N)C(=O)N[C@@H](CCC(N)=O)C(=O)N[C@@H](CC(C)C)C(=O)N[C@@H](Cc1ccccc1)C(=O)N[C@@H](CCC(N)=O)C(=O)N[C@@H](Cc1ccc(O)cc1)C(=O)N[C@@H](CCC(N)=O)C(=O)N[C@@H](CCC(=O)O)C(=O)NCC(=O)N[C@H](C(=O)N[C@@H](CCCNC(=N)N)C(=O)N[C@@H](CCC(=O)O)C(=O)O)C(C)C)[C@@H](C)CC)C(C)C)C(C)C)C(C)C)[C@@H](C)O [PCF11_4] (H-ITQDDFLVVVHQIRQLFQYQEGVRE-OH; N-terminus assumed)
[1]
  IC50: 59 nM

## CC[C@H](C)[C@H](NC(=O)[C@H](CCC(N)=O)NC(=O)[C@H](Cc1c[nH]cn1)NC(=O)[C@@H](NC(=O)[C@@H](NC(=O)[C@@H](NC(=O)[C@H](CC(C)C)NC(=O)[C@H](Cc1ccccc1)NC(=O)[C@H](CC(=O)O)NC(=O)[C@H](CC(=O)O)NC(=O)[C@@H](N)CCC(N)=O)C(C)C)C(C)C)C(C)C)C(=O)N[C@@H](CCCNC(=N)N)C(=O)N[C@@H](CCC(N)=O)C(=O)N[C@@H](CC(C)C)C(=O)N[C@@H](Cc1ccccc1)C(=O)N[C@@H](CCC(N)=O)C(=O)N[C@@H](Cc1ccc(O)cc1)C(=O)N[C@@H](CCC(N)=O)C(=O)N[C@@H](CCC(=O)O)C(=O)NCC(=O)O [PCF11_5] (H-QDDFLVVVHQIRQLFQYQEG-OH; N-terminus assumed)
[1]
  IC50: 77 nM

## CC[C@H](C)[C@H](NC(=O)[C@H](CCC(N)=O)NC(=O)[C@H](Cc1c[nH]cn1)NC(=O)[C@@H](N)C(C)C)C(=O)N[C@@H](CCCNC(=N)N)C(=O)N[C@@H](CCC(N)=O)C(=O)N[C@@H](CC(C)C)C(=O)N[C@@H](Cc1ccccc1)C(=O)N[C@@H](CCC(N)=O)C(=O)N[C@@H](Cc1ccc(O)cc1)C(=O)N[C@@H](CCC(N)=O)C(=O)N[C@@H](CCC(=O)O)C(=O)NCC(=O)N[C@H](C(=O)N[C@@H](CCCNC(=N)N)C(=O)O)C(C)C [PCF11_7] (H-VHQIRQLFQYQEGVR-OH; N-terminus assumed)
[1]
  IC50: > 50000 nM

## CC[C@H](C)[C@H](NC(=O)[C@H](CCC(N)=O)NC(=O)[C@H](Cc1c[nH]cn1)NC(=O)[C@@H](N)C(C)C)C(=O)N[C@@H](CCCNC(=N)N)C(=O)N[C@@H](CCC(N)=O)C(=O)N[C@@H](CC(C)C)C(=O)N[C@@H](Cc1ccccc1)C(=O)N[C@@H](CCC(N)=O)C(=O)N[C@@H](Cc1ccc(O)cc1)C(=O)N[C@@H](CCC(N)=O)C(=O)N[C@@H](CCC(=O)O)C(=O)NCC(=O)N[C@H](C(=O)N[C@@H](CCCNC(=N)N)C(=O)N[C@@H](CCC(=O)O)C(=O)N[C@@H](CCC(=O)O)C(=O)N[C@@H](CCC(N)=O)C(=O)N[C@@H](CCCNC(=N)N)C(=O)N[C@@H](CO)C(=O)O)C(C)C [PCF11_8] (H-VHQIRQLFQYQEGVREEQRS-OH; N-terminus assumed)
[1]
  IC50: > 50000 nM

B1: PCF11_6 peptide I689A (peptide)
chain: FLVVVHQARQLFQYQ
[2]
  IC50: 1020 nM

B2: PCF11_6 peptide F693A (peptide)
chain: FLVVVHQIRQLAQYQ
[2]
  IC50: 2140 nM

B3: PCF11 peptide (FLVVVHQIRQLFQ) containing phenylalanine at position 12 (peptide)
peptide: FLVVVHQIRQLFQ
notes: PCF11 degron, human; position +1 is F682 and position +12 is F693; also called model 13 amino acid PCF11 peptide degron; natural PCF11 degron peptide; source: synthetic peptide
[3]
  IC50: 60.4 nM
[4]
  binding result: binds

B4: PCF11 peptide (FLVVVHQIRQLF*Q) containing 4-cyano-phenylalanine at position 12 (peptide)
peptide: FLVVVHQIRQL[Phe(4-CN)]Q
notes: PCF11 degron, human; the phenylalanine at position 12 (F693) is 4-cyano-phenylalanine; also called 4-cyano-phenylalanine variant; source: synthetic peptide
[4]
  IC50: 663 nM

B5: PCF11_6 peptide R690A (peptide)
chain: FLVVVHQIAQLFQYQ
[2]
  IC50: 15600 nM

B6: PCF11_6 peptide L692A (peptide)
chain: FLVVVHQIRQAFQYQ
[2]
  IC50: 540 nM

B7: PCF11_6 peptide F682A (peptide)
chain: ALVVVHQIRQLFQYQ
modifications: same inferred limits as m7
[2]
  IC50: 570 nM

B8: PCF11_6 peptide (peptide)
chain: FLVVVHQIRQLFQYQ
modifications: exact ends are only in Fig. 1b; 682-696 is inferred from 'three overlapping peptides centered on PCF11 amino acids 682-696' (the later 13-residue model peptide is 682-694)
[2]
  IC50: 70 nM and 65 nM

B9: PCF11 degron peptide (human PCF11 amino acid 677-701), as part of the crystallised fusion (peptide, UniProt O94913 677-701, looked up)
chain: ITQDDFLVVVHQIRQLFQYQEGVRE
notes: PCF11, human, amino acids 677-701; In the crystal it is joined by the linker GGSGRP to the N-terminus of m27 (whole chain: m25); also called PCF11 peptide; source: E. coli BL21(DE3), purified, on one chain with MAGE-A11 MHD
[5]
  binding result: binds

B10: PCF11 peptide (FLVVVHQIRQLF*Q) containing 3-methyl-phenylalanine at position 12 (peptide)
peptide: FLVVVHQIRQL[Phe(3-Me)]Q
notes: PCF11 degron, human; the phenylalanine at position 12 (F693) is 3-methyl-phenylalanine; also called 3-methyl-phenylalanine variant; source: synthetic peptide
[4]
  IC50: 1.7 nM
